Molecular target: ZFHD1-FKBP (ZF-FKBP fusion) (synthetic construct) (UniProt P08046+P14859)
Assay: cell_activity
Settings: GFP reporter in 293-ZF-FKBP cells with CEM87 recruiting BRD4; dose-dependent; indirect evidence of binding; no response in WT 293 cells

Chain of ZFHD1-FKBP (ZF-FKBP fusion) (synthetic construct) (P08046 333-390, chain 1 of 2): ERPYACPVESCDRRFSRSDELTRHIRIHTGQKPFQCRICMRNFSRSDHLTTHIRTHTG
Chain of ZFHD1-FKBP (ZF-FKBP fusion) (synthetic construct) (P14859 378-439, chain 2 of 2): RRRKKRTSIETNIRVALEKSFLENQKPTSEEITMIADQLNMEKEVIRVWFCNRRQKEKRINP

For “ZF binding domain recognition sequence (ZFHD1 cognate site) upstream of JET promoter in AAV2-BD-JET-GFP”, which activity (fold activation) is on record?
The activity (fold activation) was > 10.

Reference: US20240238448
